Target: the molecule itself
Assay: native gel or EMSA; lysates of A549 and NCI-H460 cells in RIPA buffer; non-reducing LDS sample buffer; NativePAGE Bis-Tris 3-12% gel, run 1.5 h; Western blot; interpreted qualitatively

B1: Butyrophilin-like 9 (BTNL9), wild type, FLAG-tagged or AM-tagged (natural protein, human, UniProt Q6UXG8-1 35-535, looked up)
chain: SSEVKVLGPEYPILALVGEEVEFPCHLWPQLDAQQMEIRWFRSQTFNVVHLYQEQQELPGRQMPAFRNRTKLVKDDIAYGSVVLQLHSIIPSDKGTYGCRFHSDNFSGEALWELEVAGLGSDPHLSLEGFKEGGIQLRLRSSGWYPKPKVQWRDHQGQCLPPEFEAIVWDAQDLFSLETSVVVRAGALSNVSVSIQNLLLSQKKELVVQIADVFVPGASAWKSAFVATLPLLLVLAALALGVLRKQRRSREKLRKQAEKRQEKLTAELEKLQTELDWRRAEGQAEWRAAQKYAVDVTLDPASAHPSLEVSEDGKSVSSRGAPPGPAPGHPQRFSEQTCALSLERFSAGRHYWEVHVGRRSRWFLGACLAAVPRAGPARLSPAAGYWVLGLWNGCEYFVLAPHRVALTLRVPPRRLGVFLDYEAGELSFFNVSDGSHIFTFHDTFSGALCAYFRPRAHDGGEHPDPLTICPLPVRGTGVPEENDSDTWLQPYEPADPALDWW
notes: bZIP domain annotated at residues 281-317; Two differently tagged copies of the same wild-type protein (FLAG copy as bait, AM-tag copy as prey) are written as one molecule; Each copy carries only one of the two tags; also called WT; BTNL9-FLAG; source: A549 and NCI-H460 cells, lentiviral infection, in lysate
- stoichiometry N: 2

— article PMC13466322, “Immunoglobulin Superfamily Protein BTNL9 Functions as a Non-Canonical Transcriptional Regulator to Suppress NSCLC Through Cell Cycle and p53 Pathways” (International Journal of Molecular Sciences, 2026)
